# T1: CD19抗原 (B lymphocyte antigen CD19) (human, UniProt P15391 20-291, limits assumed, biotin label in Examples 2-4 (site not stated))
# T1 construct: also called CD19-his; CD19-his-biotin; not shown: his tag
# T1 sequence (looked up): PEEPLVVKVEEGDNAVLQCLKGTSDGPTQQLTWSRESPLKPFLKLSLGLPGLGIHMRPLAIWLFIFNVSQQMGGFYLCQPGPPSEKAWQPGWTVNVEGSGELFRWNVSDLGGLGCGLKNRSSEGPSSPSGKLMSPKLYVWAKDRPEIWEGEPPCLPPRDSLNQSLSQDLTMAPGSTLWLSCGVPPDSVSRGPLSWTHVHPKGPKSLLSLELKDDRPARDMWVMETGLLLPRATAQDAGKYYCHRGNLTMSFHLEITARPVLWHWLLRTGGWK
# Biological target: T1, CD19抗原 (B lymphocyte antigen CD19)
# Assay: ELISA of periplasmic extract dilutions on a CD19-coated plate, OD450
row,binding result,Binder
1,binds,"Combo-5 (scFv in periplasmic extract) (scFv, Soluble scFv in E. coli periplasmic extract (PPE), not purified) scFv: EVKLQESGPGLVAPSQSLSVTCTVSGWSLEDYGVSWIRQSPRKGLEWLGGIIGSQTTYYLAGLKSRLTIIKDNSKSQVFLKMNSLQTDDTAIYYCAKHRYYGGSFDMDYWGQGTSVTVSSGGGGSGGGGSGGGGSDIQMTQTTSSLSASLGDRVTISCRASQDISKYLNWYQQKPDGTVKLLIYHTSRLHSGVPSRFSGSGSGTDYSLTISNLEQEDIATYFCQQGNTLPYTFGGGTKLEIT"
2,binds,"Combo-7 (scFv in periplasmic extract) (scFv, Soluble scFv in E. coli periplasmic extract (PPE), not purified) scFv: EVKLQESGPGLVAPSQSLSVTCTVSGWSLEDYGVSWIRQSPRKGLEWLGGIIGSQTTYYLAGLKSRLTIIKDNSKSQVFLKMNSLQTDDTAIYYCAKHWYYGGSFAMDYWGQGTSVTVSSGGGGSGGGGSGGGGSDIQMTQTTSSLSASLGDRVTISCRASQDISKYLNWYQQKPDGTVKLLIYHTSRLHSGVPSRFSGSGSGTDYSLTISNLEQEDIATYFCQQGNTLPYTFGGGTKLEIT"
3,binds,"Combo-9 (scFv in periplasmic extract) (scFv, Soluble scFv in E. coli periplasmic extract (PPE), not purified) scFv: EVKLQESGPGLVAPSQSLSVTCTVSGVSLPDYGVSWIRQPPRKGLEWLGVIWGSETTYYNSALKSRLTIIKDNSKSQVFLKMNSLQTDDTAIYYCAKHYYYGGSYAMDYWGQGTSVTVSSGGGGSGGGGSGGGGSDIQMTQTTSSLSASLGDRVTISCRASQPIRRYLNWYQQKPDGTVKLLIYQTSRLAWGVPSRFSGSGSGTDYSLTISNLEQEDIATYFCQQGKKAPLTFGGGTKLEIT"
4,binds,"Combo-10 (scFv in periplasmic extract) (scFv, Soluble scFv in E. coli periplasmic extract (PPE), not purified) scFv: EVKLQESGPGLVAPSQSLSVTCTVSGVSLPDYGVSWIRQPPRKGLEWLGVIWGSETTYYNSALKSRLTIIKDNSKSQVFLKMNSLQTDDTAIYYCAKHYYYGGSYAMDYWGQGTSVTVSSGGGGSGGGGSGGGGSDIQMTQTTSSLSASLGDRVTISCRASQPIRRYLNWYQQKPDGTVKLLIYHTSRLHSGVPSRFSGSGSGTDYSLTISNLEQEDIATYFCQQGKKAPLTFGGGTKLEIT"
5,binds,"Combo-14 (scFv in periplasmic extract) (scFv, Soluble scFv in E. coli periplasmic extract (PPE), not purified) scFv: EVKLQESGPGLVAPSQSLSVTCTVSGVSLPDYGVSWIRQSPRKGLEWLGVIWGSETTYYNSALKSRLTIIKDNSKSQVFLKMNSLQTDDTAIYYCAKHYYYGGSYAMDYWGQGTSVTVSSGGGGSGGGGSGGGGSDIQMTQTTSSLSASLGDRVTISCRASMDIKKYLNWYQQKPDGTVKLLIYHTSRLHSGVPSRFSGSGSGTDYSLTISNLEQEDIATYFCQQGKKAPLTFGGGTKLEIT"
6,binds,"Combo-13 (scFv in periplasmic extract) (scFv, Soluble scFv in E. coli periplasmic extract (PPE), not purified) scFv: EVKLQESGPGLVAPSQSLSVTCTVSGVSLPDYGVSWIRQSPRKGLEWLGVIWGSETTYYNSALKSRLTIIKDNSKSQVFLKMNSLQTDDTAIYYCAKHYYYGGSYAMDYWGQGTSVTVSSGGGGSGGGGSGGGGSDIQMTQTTSSLSASLGDRVTISCRASMDIKKYLNWYQQKPDGTVKLLIYQTSRLAWGVPSRFSGSGSGTDYSLTISNLEQEDIATYFCQQGKKAPLTFGGGTKLEIT"
7,binds,"Combo-6 (scFv in periplasmic extract) (scFv, Soluble scFv in E. coli periplasmic extract (PPE), not purified) scFv: EVKLQESGPGLVAPSQSLSVTCTVSGWSLEDYGVSWIRQSPRKGLEWLGVIWGSETTYYNSALKSRLTIIKDNSKSQVFLKMNSLQTDDTAIYYCAKHRYYGGSFDMDYWGQGTSVTVSSGGGGSGGGGSGGGGSDIQMTQTTSSLSASLGDRVTISCRASQDISKYLNWYQQKPDGTVKLLIYHTSRLHSGVPSRFSGSGSGTDYSLTISNLEQEDIATYFCQQGNTLPYTFGGGTKLEIT"
8,binds,"Combo-8 (scFv in periplasmic extract) (scFv, Soluble scFv in E. coli periplasmic extract (PPE), not purified) scFv: EVKLQESGPGLVAPSQSLSVTCTVSGWSLEDYGVSWIRQSPRKGLEWLGVIWGSETTYYNSALKSRLTIIKDNSKSQVFLKMNSLQTDDTAIYYCAKHWYYGGSFAMDYWGQGTSVTVSSGGGGSGGGGSGGGGSDIQMTQTTSSLSASLGDRVTISCRASQDISKYLNWYQQKPDGTVKLLIYHTSRLHSGVPSRFSGSGSGTDYSLTISNLEQEDIATYFCQQGNTLPYTFGGGTKLEIT"

# — patent CN107793479A (SHANGHAI JIBEI BIOLOGICAL TECH CO LTD, dated 2018)
